Assay results taken from patent US20030049661A1 (JCR PHARMACEUTICALS, published 2003).

Columns and labels:
[1] = target: endogenous Rim2 of PC12 cells; assay: cell-based or functional assay
[2] = target: T1, constitutively active bovine Rab3A (Q81L), full-length, bait in pBTM116 (bovine, UniProt P11023 1-220); assay: yeast two-hybrid, liquid β-galactosidase assay
T1 construct: also called active Rab3A (Q81L); not shown: fusion partner encoded by bait vector pBTM116
T1 sequence (looked up): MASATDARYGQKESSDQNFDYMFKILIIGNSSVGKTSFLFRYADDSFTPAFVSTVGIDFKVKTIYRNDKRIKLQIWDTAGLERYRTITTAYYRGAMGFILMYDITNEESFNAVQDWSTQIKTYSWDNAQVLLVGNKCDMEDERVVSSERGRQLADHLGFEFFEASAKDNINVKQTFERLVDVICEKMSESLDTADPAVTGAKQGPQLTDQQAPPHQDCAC

| Molecule | 8-Br-cAMP (1 mM)-induced, Ca2+-dependent GH secretion [1] [%] | binding result [2] |
| --- | --- | --- |
| wild-type cAMP-GEFII (expressed in PC12 cells from pSRα) (from UniProt Q9EQZ6 1-1011) | 34.9 | – |
| rat Rim1 zinc finger domain (amino acid residues 1-204), prey in pVP16 (other, UniProt Q9JIR4 1-204, looked up, range 1-204; not shown: fusion partner encoded by prey vector pVP16) MSSAVGPRGPRPPTVPPPMQELPDLSHLTEEERNIIMAVMDRQKEEEEKEEAMLKCVVRDMAKPAACKTPRNAESQPHQPPLNIFRCVCVPRKPSSEEGGPERDWRLHQQFESYKEQVRKIGEEARRYQGEHKDDAPTCGICHKTKFADGCGHLCSYCRTKFCARCGGRVSLRSNNEDKVVMWVCNLCRKQQEILTKSGAWFFG | – | binds |
